What was measured:
[1] = molecular target: mouse MMP-2 (R&D Systems #924-MP-010) (mouse) (UniProt P33434); assay: Ki,app, enzyme inhibition assay (fluorogenic peptide substrate), small-scale sFab
[2] = molecular target: mouse MMP-2 (R&D Systems #924-MP-010) (mouse) (UniProt P33434); assay: Ki,app, enzyme inhibition assay (fluorogenic peptide substrate), medium-scale sFab
[3] = molecular target: mouse MMP-2 (R&D Systems #924-MP-010) (mouse) (UniProt P33434); assay: Ki,app, enzyme inhibition assay (fluorogenic peptide substrate), IgG

Ki [1] [nM] | Ki [2] [nM] | Ki [3] [nM] | Binder
25 | 25 | – | M0301-D12 (Fab, V domains shown) VH: EVQLLESGGGLVQPGGSLRLSCAASGFTFSMYDMWWVRQAPGKGLEWVSVIYSSGGYTSYADSVKGRFTISRDNSKNTLYLQMNSLRAEDTAVYYCAKDRAYGDYVGWNGFDYWGQGTLVTVSS VL: DIQMTQSPATLSLSPGERATLSCRASQSISSFLAWYQQKPGQAPRLLIYDASYRATGIPARFSGSGSGTDFTLTISSLEPEDYAVYYCQQRGNWPITFGQGTRLEIK
15 | 15 | – | M0275-E12 (Fab, V domains shown) VH: EVQLLESGGGLVQPGGSLRLSCAASGFTFSHYDMWWVRQAPGKGLEWVSVIYSSGGFTGYADSVKGRFTISRDNSKNTLYLQMNSLRAEDTAVYYCAKDRAYGDYVGWNGFDYWGQGTLVTVSS VL: DIQMTQSPATLSLSPGERATLSCRASQSISSFLAWYQQKPGQAPRLLIYDASYRATGIPARFSGSGSGTDFTLTISSLEPEDYAVYYCQQRGNWPITFGQGTRLEIK
22 | 22 | – | M0273-G07 (Fab, V domains shown) VH: EVQLLESGGGLVQPGGSLRLSCAASGFTFSHYDMWWVRQAPGKGLEWVSVIYPSGGPTYYADSVKGRFTISRDNSKNTLYLQMNSLRAEDTAVYYCAKDRAYGDYVGWNGFDYWGQGTLVTVSS VL: DIQMTQSPATLSLSPGERATLSCRASQSISSFLAWYQQKPGQAPRLLIYDASYRATGIPARFSGSGSGTDFTLTISSLEPEDYAVYYCQQRGNWPITFGQGTRLEIK
– | – | 76 | 539A-M0237-D02 hIgG1 (antibody, V domains shown) VH: EVQLLESGGGLVQPGGSLRLSCAASGFTFSQYPMWWVRQAPGKGLEWVSYIVPSGGRTYYADSVKGRFTISRDNSKNTLYLQMNSLRAEDTAVYYCAKDRAYGDYVGWNGFDYWGQGTLVTVSS VL: DIQMTQSPATLSLSPGERATLSCRASQSISSFLAWYQQKPGQAPRLLIYDASYRATGIPARFSGSGSGTDFTLTISSLEPEDYAVYYCQQRGNWPITFGQGTRLEIK
– | – | 3 | X0106-F05 (antibody, V domains shown) VH: EVQLLESGGGLVQPGGSLRLSCAASGFTFSLYDMWWVRQAPGKGLEWVSVIYSSGGYTGYADSVKGRFTISRDNSKNTLYLQMNSLRAEDTAVYYCAKDRAYGDYVGWNGFDYWGQGTLVTVSS VL: EIVLTQSPATLSLSPGERATLSCRASQSISSFLAWYQQKPGQAPRLLIYDASYRATGIPARFSGSGSGTDFTLTISSLEPEDFAVYYCQQRGNWPITFGQGTRLEIK
5.4 | 5.4 | – | M0275-D03 (Fab, V domains shown) VH: EVQLLESGGGLVQPGGSLRLSCAASGFTFSQYDMWWVRQAPGKGLEWVSVIYPSGTTFYADSVKGRFTISRDNSKNTLYLQMNSLRAEDTAVYYCAKDRAYGDYVGWNGFDYWGQGTLVTVSS VL: DIQMTQSPATLSLSPGERATLSCRASQSISSFLAWYQQKPGQAPRLLIYDASYRATGIPARFSGSGSGTDFTLTISSLEPEDYAVYYCQQRGNWPITFGQGTRLEIK
– | – | 4.2 | X0106-B02 (antibody, V domains shown) VH: EVQLLESGGGLVQPGGSLRLSCAASGFTFSWYDMWWVRQAPGKGLEWVSVIYSSGGPTFYADSVKGRFTISRDNSKNTLYLQMNSLRAEDTAVYYCAKDRAYGDYVGWNGFDYWGQGTLVTVSS VL: EIVLTQSPATLSLSPGERATLSCRASQSISSFLAWYQQKPGQAPRLLIYDASYRATGIPARFSGSGSGTDFTLTISSLEPEDFAVYYCQQRGNWPITFGQGTRLEIK
46 | 46 | – | M0272-H08 (Fab, V domains shown) VH: EVQLLESGGGLVQPGGSLRLSCAASGFTFSAYDMWWVRQAPGKGLEWVSVIYPSGGTTFYADSVKGRFTISRDNSKNTLYLQMNSLRAEDTAVYYCAKDRAYGDYVGWNGFDYWGQGTLVTVSS VL: DIQMTQSPATLSLSPGERATLSCRASQSISSFLAWYQQKPGQAPRLLIYDASYRATGIPARFSGSGSGTDFTLTISSLEPEDYAVYYCQQRGNWPITFGQGTRLEIK
59 | 59 | – | M0273-B10 (Fab, V domains shown) VH: EVQLLESGGGLVQPGGSLRLSCAASGFTFSKYAMIWVRQAPGKGLEWVSWIPPSGGYTSYADSVKGRFTISRDNSKNTLYLQMNSLRAEDTAVYYCAKDRAYGDYVGWNGFDYWGQGTLVTVSS VL: DIQMTQSPATLSLSPGERATLSCRASQSISSFLAWYQQKPGQAPRLLIYDASYRATGIPARFSGSGSGTDFTLTISSLEPEDYAVYYCQQRGNWPITFGQGTRLEIK
– | – | 3.2 | X0106-C03 (antibody, V domains shown) VH: EVQLLESGGGLVQPGGSLRLSCAASGFTFSVYDMWWVRQAPGKGLEWVSVIYPSGGATYYADSVKGRFTISRDNSKNTLYLQMNSLRAEDTAVYYCAKDRAYGDYVGWNGFDYWGQGTLVTVSS VL: EIVLTQSPATLSLSPGERATLSCRASQSISSFLAWYQQKPGQAPRLLIYDASYRATGIPARFSGSGSGTDFTLTISSLEPEDFAVYYCQQRGNWPITFGQGTRLEIK
21 | 21 | – | M0301-A09 (Fab, V domains shown) VH: EVQLLESGGGLVQPGGSLRLSCAASGFTFSYYDMWWVRQAPGKGLEWVSVIYPSGGYTAYADSVKGRFTISRDNSKNTLYLQMNSLRAEDTAVYYCAKDRAYGDYVGWNGFDYWGQGTLVTVSS VL: DIQMTQSPATLSLSPGERATLSCRASQSISSFLAWYQQKPGQAPRLLIYDASYRATGIPARFSGSGSGTDFTLTISSLEPEDYAVYYCQQRGNWPITFGQGTRLEIK
4.2 | 4.2 | – | M0256-D11 (Fab, V domains shown) VH: EVQLLESGGGLVQPGGSLRLSCAASGFTFSHYDMWWVRQAPGKGLEWVSVIYSSGGPTFYADSVKGRFTISRDNSKNTLYLQMNSLRAEDTAVYYCAKDRAYGDYVGWNGFDYWGQGTLVTVSS VL: DIQMTQSPATLSLSPGERATLSCRASQSISSFLAWYQQKPGQAPRLLIYDASYRATGIPARFSGSGSGTDFTLTISSLEPEDYAVYYCQQRGNWPITFGQGTRLEIK
32 | 32 | – | M0273-A11 (Fab, V domains shown) VH: EVQLLESGGGLVQPGGSLRLSCAASGFTFSRYDMWWVRQAPGKGLEWVSVISPSGGATFYADSVKGRFTISRDNSKNTLYLQMNSLRAEDTAVYYCAKDRAYGDYVGWNGFDYWGQGTLVTVSS VL: DIQMTQSPATLSLSPGERATLSCRASQSISSFLAWYQQKPGQAPRLLIYDASYRATGIPARFSGSGSGTDFTLTISSLEPEDYAVYYCQQRGNWPITFGQGTRLEIK
2.2 | 2.2 | – | M0307-F04 (Fab, V domains shown) VH: EVQLLESGGGLVQPGGSLRLSCAASGFTFSLYDMWWVRQAPGKGLEWVSVIYSSGGYTGYADSVKGRFTISRDNSKNTLYLQMNSLRAEDTAVYYCAKDRAYGDYVGWNGFDYWGQGTLVTVSS VL: DIQMTQSPATLSLSPGERATLSCRASQSISSFLAWYQQKPGQAPRLLIYDASYRATGIPARFSGSGSGTDFTLTISSLEPEDYAVYYCQQRGNWPITFGQGTRLEIK
3.7 | 3.7 | – | M0276-F11 (Fab, V domains shown) VH: EVQLLESGGGLVQPGGSLRLSCAASGFTFSWYDMWWVRQAPGKGLEWVSVIYSSGGPTFYADSVKGRFTISRDNSKNTLYLQMNSLRAEDTAVYYCAKDRAYGDYVGWNGFDYWGQGTLVTVSS VL: DIQMTQSPATLSLSPGERATLSCRASQSISSFLAWYQQKPGQAPRLLIYDASYRATGIPARFSGSGSGTDFTLTISSLEPEDYAVYYCQQRGNWPITFGQGTRLEIK
– | – | 3.9 | X0106-E04 (antibody, V domains shown) VH: EVQLLESGGGLVQPGGSLRLSCAASGFTFSQYDMWWVRQAPGKGLEWVSVIYPSGTTFYADSVKGRFTISRDNSKNTLYLQMNSLRAEDTAVYYCAKDRAYGDYVGWNGFDYWGQGTLVTVSS VL: EIVLTQSPATLSLSPGERATLSCRASQSISSFLAWYQQKPGQAPRLLIYDASYRATGIPARFSGSGSGTDFTLTISSLEPEDFAVYYCQQRGNWPITFGQGTRLEIK
2.7 | 2.7 | – | M0274-G08 (Fab, V domains shown) VH: EVQLLESGGGLVQPGGSLRLSCAASGFTFSVYDMWWVRQAPGKGLEWVSVIYPSGGATYYADSVKGRFTISRDNSKNTLYLQMNSLRAEDTAVYYCAKDRAYGDYVGWNGFDYWGQGTLVTVSS VL: DIQMTQSPATLSLSPGERATLSCRASQSISSFLAWYQQKPGQAPRLLIYDASYRATGIPARFSGSGSGTDFTLTISSLEPEDYAVYYCQQRGNWPITFGQGTRLEIK
30 | 30 | – | M0299-A12 (Fab, V domains shown) VH: EVQLLESGGGLVQPGGSLRLSCAASGFTFSHYPMWWVRQAPGKGLEWVSYISSSGGGTFYADSVKGRFTISRDNSKNTLYLQMNSLRAEDTAVYYCAKDRAYGDYVGWNGFDYWGQGTLVTVSS VL: DIQMTQSPATLSLSPGERATLSCRASQSISSFLAWYQQKPGQAPRLLIYDASYRATGIPARFSGSGSGTDFTLTISSLEPEDYAVYYCQQRGNWPITFGQGTRLEIK
18 | 18 | – | M0273-C10 (Fab, V domains shown) VH: EVQLLESGGGLVQPGGSLRLSCAASGFTFSFYPMWWVRQAPGKGLEWVSYIYPSGGATFYADSVKGRFTISRDNSKNTLYLQMNSLRAEDTAVYYCAKDRAYGDYVGWNGFDYWGQGTLVTVSS VL: DIQMTQSPATLSLSPGERATLSCRASQSISSFLAWYQQKPGQAPRLLIYDASYRATGIPARFSGSGSGTDFTLTISSLEPEDYAVYYCQQRGNWPITFGQGTRLEIK
